Like-named read-outs stand apart in the source and are kept apart here. Where a SMILES comes first, the peptide text is derived from it. Bridges are numbered along the chain shown (N, C = ends). Where no end group is shown, it is not given here. The star is where a group is joined. HYNIC = NNc1ccc(C(=O)*)cn1
Key:
[1] = mouse; cited from earlier work
Excerpt: Due to the critical role of integrin αvβ6 in tumorigenesis and fibrogenesis, it has emerged as an appealing target for diagnostic imaging, prognosis evaluation, and therapeutic responses monitoring (Agarwal [2014]; Cantor et al. [2015]; Saini et al. [2015]; Yang et al. [2015]). Therefore, noninvasive and quantitative imaging of integrin αvβ6 expression by molecular imaging techniques would be of great potential for better management of these diseases. Previous studies have focused on the development of positron emission tomography (PET) and single-photon emission computed tomography (SPECT) ra ...

[2] = Biodistribution in BxPC-3 tumor-bearing nude mice; conditions: female, BALB/c nude, in vivo, iv, total radioactivity; for tissue uptake at 1 h: 1 h after injection
Method: (§1) All animal experiments were performed in accordance with the guidelines of Peking University Animal Care and Use Committee. To establish the BxPC-3 subcutaneous tumor model, BxPC-3 cells (1 × 10^7 in 100 μl of PBS) were inoculated subcutaneously into the right front flanks of female BALB/c nude mice. The animals were used for in vivo studies when the tumor size reached 200–300 mm^3 (3–4 weeks after inoculation). For the pulmonary fibrosis mouse model, BLM (1.5 units/kg, 50 μl in PBS) or PBS (50 μl; as a vehicle control) was administered once into the C57/BL6 mice by intratracheal injection. On day 21 (based on pilot studies), the mice with well-established pulmonary fibrosis were used for SPECT/CT imaging.
Biodistribution studies were performed using female BALB/c nude mice bearing BxPC-3 xenografts. Mice received an injection via the tail vein of 370 kBq (10 μCi) of ^99mTc–HYNIC–cHK to evaluate the distribution of the radiotracer. The blocking experiments were also performed by coinjection of ^99mTc–HYNIC–cHK with a saturating dose of the HK peptide (500 μg per mouse). At 0.5, 1, and 2 h after injection, the animals were sacrificed, and the tumors and the organs/tissues of interest were dissected and wet-weighed, and the radioactivity in the tissue was measured using a γ-counter. The results are presented as percentages of injected dose per gram of tissue (%ID/g). Values are expressed as mean ± SD (n = 4 per group).

[3] = molecular target: T1, integrin αvβ6 on BxPC-3 cells (Homo sapiens, UniProt P06756+P18564); assay: Displacement cell-binding assay with ^125I–HYK as radioligand
T1 construct: Experiments were performed on high integrin αvβ6-expressing BxPC-3 cells; host or cells: BxPC-3 human pancreatic cancer cells
Method: In vitro integrin αvβ6 binding affinities of cHK and HK were compared via displacement cell-binding assays (Dong et al. [2015]) using ^125I–HYK as the radioligand. ^125I–HYK was prepared by labeling HYK with Na^125I using the Iodogen method as previously reported (Liu et al. [2010]). Experiments were performed on high integrin αvβ6-expressing BxPC-3 cells. The best-fit 50% inhibitory concentration (IC50) values were calculated by fitting the data with nonlinear regression using Graph-Pad Prism (GraphPad Software, Inc.).

[4] = 37 °C, 0, 0.5, 1, 2 and 4 h, radio-HPLC
Method: The in vitro solution stability of ^99mTc–HYNIC–cHK in fetal bovine serum (FBS) or L-cysteine was monitored by radio-HPLC.
^99mTc–HYNIC–cHK was incubated in FBS or L-cysteine (1.0 mg/mL) for 0, 0.5, 1, 2, and 4 h at 37 °C to test the in vitro solution stability. After passing through a 0.22-μm Millipore filter, the samples were analyzed by radio-HPLC.

BxPC-3 tumors = assay: Small-animal SPECT/CT imaging of BxPC-3 cancer xenografts; type: in vivo, BALB/c nude mice; conditions: BxPC-3 tumor-bearing mice, 37 MBq i.v., blocking dose of cold HK peptide, P < 0.001
Method: as §1
(§2) Small-animal SPECT/CT scans of subcutaneous BxPC-3 tumor and pulmonary fibrosis mouse models were performed using a SPECT/CT system (NanoScan; Mediso, Budapest, Hungary). Each BxPC-3-bearing mouse was injected via tail vein with 37 MBq (1 mCi) of ^99mTc–HYNIC–cHK. At 0.5 h and 1 h after injection, the mice were anesthetized by inhalation of 2% isoflurane and imaged using the Nano-SPECT/CT camera, The SPECT and CT fusion images were obtained using the automatic fusion software (InterView Fusion; Mediso Medical Imaging Systems, Budapest, Hungary).

[5] = for degree of metabolism in blood: mouse blood, 1 mCi i.v.
Method: We performed the metabolism studies of ^99mTc–HYNIC–cHK using normal BALB/c mice. We analyzed the samples from both blood and urine to determine whether the radiotracer retains its chemical integrity at 0.5 h and 1 h postinjection.
The metabolic stability of ^99mTc–HYNIC–cHK was evaluated in female BALB/c normal mice. Each mouse was administered with the radiotracer at a dose of 1 mCi in 100 μl saline via intravenous injection. At 0.5 h and 1 h postinjection, the blood and urine samples were collected. The samples were centrifuged at 8000 r/min for 15 min. The supernatant was collected, filtered through a 0.22-μm Millipore filter, and then analyzed by radio-HPLC.

[6] = molecular target: T2, integrin αvβ6-positive BxPC-3 cells (Homo sapiens, UniProt P06756+P18564); assay: Binding of ^99mTc–HYNIC–cHK to BxPC-3 cells, without or with cold peptide blocking; type: cell-based; conditions: 4 °C, 4 h
T2 construct: host or cells: BxPC-3 human pancreatic cancer cells
Method: The binding specificity of ^99mTc–HYNIC–cHK to integrin αvβ6 was evaluated in integrin αvβ6-positive BxPC-3 cells.
In vitro integrin αvβ6 binding specificity of ^99mTc–HYNIC–cHK was tested using the integrin αvβ6-positive BxPC-3 cells. Briefly, cells were seeded into 12-well plates and incubated overnight at 37 °C to allow adherence. After brief washing with PBS, tumor cells were incubated with 3.7 kBq ^99mTc–HYNIC–cHK with or without an excess dose of cold cHK or HK peptide at 4 °C for 4 h. Tumor cells were then washed with chilled PBS and harvested by trypsinization with 0.05% trypsin. The cell suspensions were collected and measured in a γ-counter (Wallac 1470-002, Perkin-Elmer, Finland). The cell uptake was expressed as the percent added dose (%AD). Experiments were performed twice with triplicate samples.

[7] = test system: bleomycin-induced fibrotic lungs; assay: SPECT/CT imaging of bleomycin-induced pulmonary fibrosis; type: in vivo; conditions: C57/BL6 mice, 0.5 h after injection
Method: as §1, §2
Each BLM- or PBS-treated mouse was administered with 37 MBq of ^99mTc–HYNIC–cHK via tail vein. […]

T2 sequence (P06756 31-889 limits assumed): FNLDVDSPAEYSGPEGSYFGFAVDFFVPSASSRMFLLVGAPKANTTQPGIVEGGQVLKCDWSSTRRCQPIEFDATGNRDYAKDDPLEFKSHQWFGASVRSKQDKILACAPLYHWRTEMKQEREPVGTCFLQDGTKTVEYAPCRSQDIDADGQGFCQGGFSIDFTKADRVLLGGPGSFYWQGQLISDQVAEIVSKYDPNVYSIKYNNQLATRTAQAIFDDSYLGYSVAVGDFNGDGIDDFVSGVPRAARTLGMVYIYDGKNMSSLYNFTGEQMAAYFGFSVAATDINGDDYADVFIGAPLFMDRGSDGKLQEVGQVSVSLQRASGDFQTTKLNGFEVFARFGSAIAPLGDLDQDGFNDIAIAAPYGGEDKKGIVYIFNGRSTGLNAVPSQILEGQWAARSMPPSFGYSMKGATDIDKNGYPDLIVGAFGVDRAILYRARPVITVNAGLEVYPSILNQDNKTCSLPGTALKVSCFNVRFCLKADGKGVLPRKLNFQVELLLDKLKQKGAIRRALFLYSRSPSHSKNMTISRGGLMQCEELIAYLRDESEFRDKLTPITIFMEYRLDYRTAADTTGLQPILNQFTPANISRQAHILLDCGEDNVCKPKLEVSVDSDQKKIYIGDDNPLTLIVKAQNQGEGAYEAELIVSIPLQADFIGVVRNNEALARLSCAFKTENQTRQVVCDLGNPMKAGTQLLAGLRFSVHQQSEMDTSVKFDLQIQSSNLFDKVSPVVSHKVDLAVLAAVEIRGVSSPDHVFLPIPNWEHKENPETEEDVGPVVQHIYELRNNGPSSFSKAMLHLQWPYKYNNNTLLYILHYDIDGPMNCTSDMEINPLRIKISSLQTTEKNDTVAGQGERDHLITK
T2 sequence (P06756 891-1048 partner limits assumed): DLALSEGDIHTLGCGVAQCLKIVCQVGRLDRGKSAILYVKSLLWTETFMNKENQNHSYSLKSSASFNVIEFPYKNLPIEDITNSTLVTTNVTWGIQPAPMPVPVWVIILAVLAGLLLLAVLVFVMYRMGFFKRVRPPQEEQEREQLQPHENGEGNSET
T2 sequence (P18564 22-788): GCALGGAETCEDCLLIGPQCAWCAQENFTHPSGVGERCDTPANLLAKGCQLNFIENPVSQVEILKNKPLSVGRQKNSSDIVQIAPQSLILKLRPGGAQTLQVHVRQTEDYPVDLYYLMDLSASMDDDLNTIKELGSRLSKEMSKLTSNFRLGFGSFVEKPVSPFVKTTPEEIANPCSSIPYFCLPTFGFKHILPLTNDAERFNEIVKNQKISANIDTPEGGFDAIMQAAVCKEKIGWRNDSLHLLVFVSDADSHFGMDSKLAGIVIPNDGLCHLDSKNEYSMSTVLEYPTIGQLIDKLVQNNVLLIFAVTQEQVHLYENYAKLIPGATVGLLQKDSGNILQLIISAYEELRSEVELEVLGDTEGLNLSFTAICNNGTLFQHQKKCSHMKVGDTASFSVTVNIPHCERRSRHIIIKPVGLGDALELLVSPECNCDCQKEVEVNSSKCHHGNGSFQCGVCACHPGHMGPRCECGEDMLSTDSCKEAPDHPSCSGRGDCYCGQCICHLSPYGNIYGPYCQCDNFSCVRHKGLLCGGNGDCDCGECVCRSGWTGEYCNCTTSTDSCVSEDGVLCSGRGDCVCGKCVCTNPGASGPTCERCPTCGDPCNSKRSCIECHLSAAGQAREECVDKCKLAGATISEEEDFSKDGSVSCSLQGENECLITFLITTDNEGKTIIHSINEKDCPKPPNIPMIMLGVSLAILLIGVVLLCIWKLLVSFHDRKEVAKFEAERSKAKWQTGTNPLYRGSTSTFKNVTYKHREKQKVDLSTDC
T1 sequence (P06756 31-889 limits assumed): as the sequence (P06756 31-889 limits assumed) above
T1 sequence (P06756 891-1048 partner limits assumed): as the sequence (P06756 891-1048 partner limits assumed) above
T1 sequence (P18564 22-788): as the sequence (P18564 22-788) above

CC(C)C[C@H](NC(=O)[C@H](CC(=O)O)NC(=O)CNC(=O)[C@@H](N)CCCNC(=N)N)C(=O)N[C@@H](C)C(=O)N[C@H](C(=O)N[C@@H](CC(C)C)C(=O)N[C@@H](CCCNC(=N)N)C(=O)N[C@@H](CCC(N)=O)C(=O)N[C@@H](CC(C)C)C(=O)N[C@@H](C)C(=O)N[C@@H](CCC(N)=O)C(=O)N[C@@H](CCC(=O)O)C(=O)N[C@@H](CC(=O)O)C(=O)NCC(=O)N[C@H](C(=O)N[C@H](C(=O)NCC(=O)N[C@H](C(=O)N[C@@H](CCCNC(=N)N)C(=O)N[C@@H](CCCCNC(=O)c1ccc(NN)nc1)C(=O)O)C(C)C)C(C)C)C(C)C)[C@@H](C)O [^99mTc–HYNIC–HK, metal not drawn, reference compound] (H-RGDLATLRQLAQEDGVVGVRK(HYNIC)-OH; N-terminus and C-terminus assumed)
time to complete degradation in vivo after injection [1]: ≤ 30 min | tissue to tissue ratio at 0.5 h ([2]; mouse, 370 kBq): 1.82 ± 0.27 | tissue uptake at 0.5 h ([2]; mouse, 370 kBq): 0.58 ± 0.09 %ID/g

CC(C)C[C@@H]1NC(=O)[C@H](CC(=O)O)NC(=O)CNC(=O)[C@H](CCCNC(=N)N)NC(=O)[C@@H](N)CSSC[C@@H](C(=O)O)NC(=O)[C@H](CCCCN)NC(=O)[C@H](CC(C)C)NC(=O)[C@H]([C@@H](C)O)NC(=O)[C@H](C)NC1=O [cHK] (H-CRGDLATLKC-OH; disulfide 1-10)
IC50 [3]: 20.3 ± 1.17 nM

CC(C)C[C@@H]1NC(=O)[C@H](CC(=O)O)NC(=O)CNC(=O)[C@H](CCCNC(=N)N)NC(=O)[C@@H](N)CSSC[C@@H](C(=O)O)NC(=O)[C@H](CCCCNC(=O)c2ccc(NN)nc2)NC(=O)[C@H](CC(C)C)NC(=O)[C@H]([C@@H](C)O)NC(=O)[C@H](C)NC1=O [^99mTc–HYNIC–cHK, metal not drawn] (H-CRGDLATLK(HYNIC)C-OH; disulfide 1-10)
time remaining stable in the presence of L-cysteine ([4]; L-cysteine 1.0 mg/mL): more than 4 h | time remaining stable in FBS ([4]; fetal bovine serum): more than 4 h | tumor uptake in the HK blocking group (SPECT) (BxPC-3 tumors): almost completely inhibited | in vivo stability compared to ^99mTc–HYNIC–HK ([5]; comparison with linear peptide-based radiotracer (Liu et al. [2014b])): much more stable in vivo | degree of metabolism in blood ([5]; 0.5 h postinjection, radio-HPLC): 9.94% | degree of metabolism in blood ([5]; 1 h postinjection, radio-HPLC): 30.09% | chemical integrity in urine ([5]; mouse urine, 0.5 h and 1 h postinjection, radio-HPLC): retained its integrity | binding of ^99mTc–HYNIC–cHK to BxPC-3 cells (cell uptake) ([6]; with excess cold HK peptide (300 μg) blocking): 0.06 ± 0.007 %AD | binding of ^99mTc–HYNIC–cHK to BxPC-3 cells (cell uptake) ([6]; with excess cold cHK peptide (300 μg) blocking): 0.03 ± 0.005 %AD | binding of ^99mTc–HYNIC–cHK to BxPC-3 cells (cell uptake) ([6]; without blocking, 3.7 kBq tracer, γ-counter, twice with triplicate samples): 0.79 ± 0.01 %AD | tissue uptake at 1 h ([2]; BxPC-3 tumors, blocking with HK peptide 500 μg per mouse, n = 4, read-out: tumor uptake with coinjection of cold HK peptide): 0.24 ± 0.04 %ID/g | tissue to tissue ratio at 0.5 h ([2]; mouse, 370 kBq, BxPC-3 tumor-bearing nude mice, 0.5 h after injection, n = 4, read-out: tumor-to-muscle (T/M) ratio): 2.99 ± 0.87 | tissue uptake at 1 h ([2]; mouse, 370 kBq, BxPC-3 tumors, mean ± SD, n = 4, read-out: tumor uptake): 0.43 ± 0.09 %ID/g | tissue uptake at 2 h ([2]; mouse, 370 kBq, BxPC-3 tumors, 2 h after injection, mean ± SD, n = 4): 0.33 ± 0.16 %ID/g | tissue uptake at 0.5 h ([2]; mouse, BxPC-3 tumors, 0.5 h after injection, 370 kBq i.v., mean ± SD, n = 4, read-out: tumor uptake): 0.63 ± 0.18 %ID/g | lung uptake in PBS-treated mice (SPECT/CT) ([7]; PBS control, 37 MBq i.v.): no significant uptake | lung uptake in BLM-treated mice (SPECT/CT) ([7]; bleomycin 1.5 units/kg intratracheal, day 21, 37 MBq i.v.): evident accumulation

RGDLATLRQLAQEDGVVGVRK [HK, reference compound]
IC50 ([3]; displacement cell-binding assay, BxPC-3 cells, nonlinear regression fit, read-out: IC50, inhibition of ^125I–HYK binding to integrin αvβ6 on BxPC-3 cells): 3.55 ± 0.09 nM

— paper PMC6245143, “Small-animal SPECT/CT imaging of cancer xenografts and pulmonary fibrosis using a ^99mTc-labeled integrin αvβ6-targeting cyclic peptide with improved in vivo stability” (Biophysics Reports, 2018)
